The target of assay [1] is Hsp70 nucleotide-binding domain (Hsp70NBD). The assay can be described thus: ITC.
The target in assay [2] is Rpn1, human, recombinant full-length (human) (UniProt Q13200). In words: ITC. On the technique in general: ITC needs no label: the signal is the heat of the interaction.
For assay [3], the target named is Rpn1, human, recombinant full-length (human, UniProt Q13200 1-908). In words: cross-linking.

The Kd is the free concentration of one partner at which half of the binding sites on the other are occupied at equilibrium, for simple one-to-one binding.

Sequence of Rpn1, human, recombinant full-length (human) (Q13200 whole entry): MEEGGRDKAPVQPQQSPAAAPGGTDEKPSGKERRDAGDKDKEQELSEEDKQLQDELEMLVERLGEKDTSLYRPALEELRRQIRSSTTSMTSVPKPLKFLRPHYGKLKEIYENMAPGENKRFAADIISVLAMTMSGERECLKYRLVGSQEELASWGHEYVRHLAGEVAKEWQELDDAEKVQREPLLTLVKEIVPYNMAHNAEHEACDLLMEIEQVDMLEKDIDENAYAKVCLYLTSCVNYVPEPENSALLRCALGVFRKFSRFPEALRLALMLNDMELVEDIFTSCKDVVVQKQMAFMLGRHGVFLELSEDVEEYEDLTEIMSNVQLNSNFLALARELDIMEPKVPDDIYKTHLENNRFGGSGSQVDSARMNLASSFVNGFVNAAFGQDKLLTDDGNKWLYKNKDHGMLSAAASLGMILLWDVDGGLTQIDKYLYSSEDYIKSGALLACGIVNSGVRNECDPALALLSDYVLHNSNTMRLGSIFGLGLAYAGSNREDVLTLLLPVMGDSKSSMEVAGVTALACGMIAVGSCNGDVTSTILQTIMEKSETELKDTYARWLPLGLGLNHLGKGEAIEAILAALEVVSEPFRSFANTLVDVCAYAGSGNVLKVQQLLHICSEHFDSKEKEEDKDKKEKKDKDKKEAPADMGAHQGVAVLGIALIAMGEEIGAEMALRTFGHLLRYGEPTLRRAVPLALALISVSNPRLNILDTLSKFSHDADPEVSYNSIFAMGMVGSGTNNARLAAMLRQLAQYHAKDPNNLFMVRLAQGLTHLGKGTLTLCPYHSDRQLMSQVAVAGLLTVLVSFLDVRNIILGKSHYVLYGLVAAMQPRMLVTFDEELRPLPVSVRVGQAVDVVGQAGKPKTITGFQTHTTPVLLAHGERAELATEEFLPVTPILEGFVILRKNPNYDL
Sequence of Rpn1, human, recombinant full-length (Q13200 whole entry): as above

Take “Bcl-2-associated anthanogene 1 (Bag1), full-length (natural protein)”: the Kd in assay [1] came out at 50 nM; in assay [2] it was 500 nM.

B1: Rpt2 of the ATPase ring isolated from Saccharomyces cerevisiae (natural protein)
chain: MGQGVSSGQDKKKKKGSNQKPKYEPPVQSKFGRKKRKGGPATAEKLPNIYPSTRCKLKLLRMERIKDHLLLEEEFVSNSEILKPFEKKQEEEKKQLEEIRGNPLSIGTLEEIIDDDHAIVTSPTMPDYYVSILSFVDKELLEPGCSVLLHHKTMSIVGVLQDDADPMVSVMKMDKSPTESYSDIGGLESQIQEIKESVELPLTHPELYEEMGIKPPKGVILYGAPGTGKTLLAKAVANQTSATFLRIVGSELIQKYLGDGPRLCRQIFKVAGENAPSIVFIDEIDAIGTKRYDSNSGGEREIQRTMLELLNQLDGFDDRGDVKVIMATNKIETLDPALIRPGRIDRKILFENPDLSTKKKILGIHTSKMNLSEDVNLETLVTTKDDLSGADIQAMCTEAGLLALRERRMQVTAEDFKQAKERVMKNKVEENLEGLYL
As for B1, the binding result in assay [3] is “binds”.

(Values after PMC12922752 (Science Advances, 2026).)
